Each block holds one binder with its values, some of them ahead of it. No end group written: not given here.
Assays:
[1] = target: T1, human CD27 (HA-tagged, expressed in HEK293 cells) (human, UniProt P26842 20-260, limits assumed); assay: co-immunoprecipitation, HEK293 co-transfection
T1 construct: Plasmid printed as 'pcDNA3-HA-CD2'; not shown: HA tag
T1 sequence (looked up): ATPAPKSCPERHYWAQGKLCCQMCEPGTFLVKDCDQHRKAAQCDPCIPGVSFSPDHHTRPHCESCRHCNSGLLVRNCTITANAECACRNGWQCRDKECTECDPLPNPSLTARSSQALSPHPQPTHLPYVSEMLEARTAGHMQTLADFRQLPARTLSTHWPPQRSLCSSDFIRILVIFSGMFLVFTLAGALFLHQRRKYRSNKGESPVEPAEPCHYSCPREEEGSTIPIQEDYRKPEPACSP
Protocol: In co-immunoprecipitation experiment, cells were lysed in IP buffer (Thermo Scientific) and Roche complete protease inhibitor for 10 minutes, followed by the addition of benzonase (sigma) for 25 minutes at room temperature. The lysate was then centrifuged at 15,000 rpm at 4° C. to remove the precipitate. The supernatant was then incubated with primary antibody slowly rotated overnight at 4° C., followed by the addition of protein A or protein G dynabeads and incubated at 4° C. for 2 hours, washed for 4 times in PBST (PBS with 0.01% Tween 20), eluted with 50 mM DTT in SDS sample buffer for 10 minutes at 100° C., separated with SDS, and immunoblotted as previously described.
To further confirm which part of SEMG-2 binds to CD27, fragments of SEMG2 protein were designed. The amino acid sequence of full-length SEMG2 protein (SEQ ID NO:1) was divided into 6 segments of sequences, fused with GFP and named as SEMG2-P1, SEMG2-P2, SEMG2-P3, SEMG2-P4, SEMG2-P5 and SEMG2-P6 (See Table 1 for specific sequences, with corresponding abbreviation as P1-P6 respectively). Plasmids expressing these amino acid sequences were co-transfected with CD27 into HEK293 cells, and co-immunoprecipitation experiments were performed to identify the main fragment of SEMG2 that binds to CD27.

[2] = target: T2, BSA-conjugated human SEMG2 (497-509) polypeptide (human, also: coupled to BSA, site not given here); assay: ELISA on BSA-S2 (497-509); curve without upper plateau; the EC50 table prints no unit, the axis is log (antibody concentration, nM)
T2 peptide: QIEKLVEGKSQIQ

[3] = target: T2, BSA-conjugated human SEMG2 (497-509) …; assay: ELISA (FIG. 21B-D)
[4] = target: T3, human SEMG2 full-length protein (human, UniProt Q02383 24-582, limits assumed); assay: ELISA (FIG. 21B-D)
T3 construct: also called SEMG2 protein; semenogelin 2
T3 sequence: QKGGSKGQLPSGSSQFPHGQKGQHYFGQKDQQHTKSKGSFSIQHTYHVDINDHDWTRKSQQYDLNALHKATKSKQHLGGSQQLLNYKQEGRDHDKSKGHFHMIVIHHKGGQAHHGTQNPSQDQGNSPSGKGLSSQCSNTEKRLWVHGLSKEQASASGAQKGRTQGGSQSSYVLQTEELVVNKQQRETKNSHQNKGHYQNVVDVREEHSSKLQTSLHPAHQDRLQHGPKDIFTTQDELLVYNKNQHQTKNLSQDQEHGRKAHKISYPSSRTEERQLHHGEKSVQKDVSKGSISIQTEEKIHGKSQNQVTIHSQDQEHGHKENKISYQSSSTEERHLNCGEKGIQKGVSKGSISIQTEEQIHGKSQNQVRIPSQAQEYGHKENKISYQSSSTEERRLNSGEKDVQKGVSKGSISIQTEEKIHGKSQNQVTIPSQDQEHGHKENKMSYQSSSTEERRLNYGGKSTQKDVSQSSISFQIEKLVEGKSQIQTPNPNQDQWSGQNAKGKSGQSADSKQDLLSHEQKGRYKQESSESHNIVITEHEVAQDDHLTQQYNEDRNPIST

[5] = target: T3, human SEMG2 full-length protein; assay: ELISA on SEMG2; the EC50 table prints no unit, the axis is log (antibody concentration, nM)

binding result [1]: no binding
B1: SEMG2-P1 fused with GFP (other)
chain: GSFSIQHTYHVDINDHDWTRKSQQYDLNALHKATKSKQHLGGSQQLLNYKQEGRDHDKSKGHFHMIVIHHKGGQAHHGT
notes: not shown: GFP fusion partner

binding result [1]: no binding
B2: SEMG2-P2 fused with GFP (other)
chain: QNPSQDQGNSPSGKGLSSQCSNTEKRLWVHGLSKEQASASGAQKGRTQGGSQSSYVLQTEELVVNKQQRETKNSHQNKGHYQNVVDVREEHSSKLQTSLHPAHQDRLQHGPKDIFTTQDELLVYNKNQHQTKNLSQDQEHGR
notes: not shown: GFP fusion partner

EC50 [2]: 12.6 nM
fold higher affinity than the parent antibody (H88-67) [3]: > 10 fold
fold higher affinity than the parent antibody (H88-67) [4]: > 10 fold
EC50 [5]: 0.313 nM
B3: 67-3-67-6 (antibody, V domains shown)
VH: QVQLLESGGGVVQPGRSLRLSCAASGFTFSSYAMHWVRQASGKGLEWVAVISYDGSNKYYADSVKGRFTISRDNSKNTLYLQMNSLRAEDTAVYYCARMDNHGSPDYWGQGTLVTVSS
VL: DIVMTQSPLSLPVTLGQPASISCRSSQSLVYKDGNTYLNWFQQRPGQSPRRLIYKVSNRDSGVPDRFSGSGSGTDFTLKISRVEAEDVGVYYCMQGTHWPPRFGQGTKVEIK

From patent publication US20230080534A1 (SHANGHAI BIOTROY BIOTECHNIQUE, published 2023)
